The numbers were not newly measured in article PMC4518449 (Journal of chromatography. B, Analytical technologies in …, 2013), which cites them from elsewhere.

The conditions of the data set: rapidly cleared by DPP-4.

On to GLP-1, for which the half-life in plasma result was “less than 2 min”.
